Test results published in patent US20150266963A1 (ARGEN X B V, published 2015).

Tests used:
[1] = molecular target: T1, human CD70 expressed on the surface of cells (human, UniProt P32970 1-193); assay: FACS MFI at 37 C, Caki-1 cells; reference SGN70
T1 construct: whole, on cells; also called cell surface expressed CD70; CD70 on cells
T1 sequence (looked up): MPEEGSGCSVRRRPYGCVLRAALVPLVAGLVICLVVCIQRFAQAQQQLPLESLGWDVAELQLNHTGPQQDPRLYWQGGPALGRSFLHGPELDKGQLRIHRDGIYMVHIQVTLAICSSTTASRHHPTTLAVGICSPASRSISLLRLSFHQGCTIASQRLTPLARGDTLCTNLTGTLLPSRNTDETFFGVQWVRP
Experimental: (§1) Several cancer cell lines were tested by FACS analysis for binding of ARGX-110 and SGN70 (described in US2010/0129362) at saturating mAb concentrations (at least 2 μg/ml). This was either done at 4° C. (1 hour incubation of cells with mAbs) or at 37° C. (15 minutes incubation of cells with mAbs). Binding was detected using anti-hIgG1-Fc-FITC (AF006, Binding Site) or anti-hIgG1-Fc-PE antibody (eBioscience, 12-4998). Fluorescence was measured using a flow cytometer.

[2] = molecular target: T2, rhesus recombinant CD70 (FLAG-TNC-rhesus CD70) (rhesus); assay: blocking ELISA; rhesus Flag-TNC-CD70; competitor CD27-Fc
T2 construct: also called rhesus Flag-TNC-CD70

[3] = molecular target: T3, recombinant human CD70 (Flag-TNC-CD70) (human, UniProt P32970 39-193); assay: blocking ELISA; Flag-TNC-CD70 captured by anti-FLAG M2; competitor CD27-Fc 6.5 nM
T3 construct: extracellular domain; Captured by anti-Flag mAb in ELISA; as 'recombinant human CD70' immobilised on Biacore CM5 chips; TNC is for trimerisation; also called recombinant CD70; human recombinant CD70; not shown: Flag tag and TNC trimerisation domain
T3 sequence (looked up): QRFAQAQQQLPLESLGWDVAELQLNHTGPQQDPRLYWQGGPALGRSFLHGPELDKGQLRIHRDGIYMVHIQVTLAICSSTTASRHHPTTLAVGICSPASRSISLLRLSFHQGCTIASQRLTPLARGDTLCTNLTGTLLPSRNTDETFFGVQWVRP
Experimental: (§2) In this assay, a microtiter plate (Nunc Maxisorb) was first coated with 100 μl anti-FLAG M2 monoclonal antibody (Sigma Aldrich, F3165) at 1250-fold dilution in PBS (to achieve a final concentration of approximately 3.5 μg/ml) overnight at 4° C. The plate was washed once with PBS-Tween and incubated at RT for 2 hours with 300 μl PBS-1% casein. The plate was washed a further three times with PBS-Tween. 100 μl of 5 ng/ml (80 pM) Flag-TNC-CD70 (The Journal of Immunology, 2009, 183: 1851-1861) diluted in PBS-0.1% casein was added to the plate and incubated at RT for 1 hour while shaking. The plate was washed five times with PBS-Tween. The CD70 mAb to be tested was added to the plate; various concentrations were achieved by diluting the stock antibody solution in PBS-0.1% casein. Immediately thereafter, 50 μl of 1 μg/ml (final concentration 6.5 nM) recombinant human CD27 Fc chimera (R&D systems 382-CD, MW=46.5 kDa) was added, and incubated at RT for 1 hour while shaking. The plate was washed five times with PBS Tween. 100 μl of biotinylated anti-CD27 (eBioscience 13-0271), diluted 500-fold in PBS-0.1% casein, was added, and the plate incubated at RT for a further hour, while shaking. The plate was washed five times with PBS Tween. […] 100 μl TMB was added to the plate and the OD at 620 nm was measured. […]

[4] = molecular target: T1, human CD70 expressed on the surface of …; assay: flow cytometry on U266 cells, 1 h at 4 °C, anti-hIgG1-Fc-FITC or anti-hIgG-Fc-PE [panel U266]
Experimental: […] This was either done at 4° C. (1 hour incubation of cells with mAbs) or at 37° C. (15 minutes incubation of cells with mAbs). Binding was detected using anti-hIgG1-Fc-FITC (AF006, Binding Site) or anti-hIgG1-Fc-PE antibody (eBioscience, 12-4998). Fluorescence was measured using a flow cytometer.

[5] = molecular target: T3, recombinant human CD70 (Flag-TNC-CD70); assay: blocking ELISA; human Flag-TNC-CD70; competitor CD27-Fc
Experimental: as §2

[6] = molecular target: T1, human CD70 expressed on the surface of …; assay: FACS MFI at 37 C, U266 cells; reference SGN70
Experimental: as §1

B1: ARGX-110 (non-fucosylated 41D12 human IgG1) (antibody, V domains shown)
VH: EVQLVESGGGLVQPGGSLRLSCAASGFTFSVYYMNWVRQAPGKGLEWVSDINNEGGTTYYADSVKGRFTISRDNSKNSLYLQMNSLRAEDTAVYYCARDAGYSNHVPIFDSWGQGTLVTVSS
VL: QAVVTQEPSLTVSPGGTVTLTCGLKSGSVTSDNFPTWYQQTPGQAPRLLIYNTNTRHSGVPDRFSGSILGNKAALTITGAQADDEAEYFCALFISNPSVEFGGGTQLTVLG
notes: also called 41D12 (ARGX-110)
[1]
  Signal in FACS of ARGX-110/signal in FACS of SGN70: 1.9 ratio
[2]
  IC50: 0.075 µg/mL
[3]
  IC50: 0.067 µg/mL
[4]
  EC50 (read off the curve): ~0.1 µg/mL
[5]
  IC50: 0.039 µg/mL
[6]
  Signal in FACS of ARGX-110/signal in FACS of SGN70: 0.8 ratio
